# According to the DeepSol protein solubility set:
# Test: soluble on expression in E. coli; label from the status in PepcDB or PDB records
row,Sequence,soluble on expression in E. coli
1,MAHHHHHHMESLDERWNNQVDNFHIKVNKLRCDMNEYKKGCYNTYNLRNNKNDVFPHLQNNNMKRRELINMNNNYEIKNYLKKPHNQTYILKDNKYVNVDDITFPVSKNISNKVIKTNDEKILENKCCFKLNVRNKRKNEKVIKINEKRWLIATKHVKIERVNKNGVEQSEEKNKKDKNRYIYLEGEEGNLHLYPMYSDSEVGFENISHIEDESLSKVKKENQDDDDIMTTKHLAQWSSDIVHKYLEEAIEKSKSIFQNCNMESRQEEIFKRIKL,not soluble
2,VANKIKLGHVHLSGCTGCLVSTADNNLGFIKILDNYADLVYSLTLADVRHVPEMDVALVEGSVCIQDHESVEEIRETREKAKIVVALGSCACYGNITRFSRGGQHNQPQHESFLPIGDLIDVDVYIPGCPPSPELIRNVAVMAYMLLEGDEDQKALAGRYLKPLMD,not soluble
3,MGSDKIHHHHHHMIKYIALASVVLLVGCSSTAKKPIADDPFYAPVYPDTVPTQVAATGSIYLDSQASSLYSDIRAHRVGDIITVTLKESTQASKSANNEIKKGSDLSVEPVYAGGKNISISGVPIDLGYSDSMNTKRESDADQSNSLDGSISANIIQVLSNGNLVIRGEKWISINNGDEFIRVTGMIRSEDINPDNTIDSTRVANARIQYSGTGTFADSQKVGWLSSFFMSDWWPF,not soluble
4,MSLGIVIYGTRIIYPAEHKEVMVQLMNQGNRSSLMQAWIDDGDTSLPPEKIQVPFMLTPPVAKIGANSGQQVKIKIMPNKLPTNKESIFYLNVLDIPPNSPEQEGKNALKFAMQNRIKLFYRPAGIAPVNKVTFKKLLVNRSGNGLVIKNDSANWVTISDVKANNVKVNYETIMIAPLESQSVNVKSNNANNWHLTIIDDHGNYISDKEGHHHHHH,soluble
5,MNDGDETLTAGAQGRQFGPLGTALVIIPTYNEAENIKSIVGRVRASVPEAHVLVADDNSPDGTGKLADELAVEDDQVHVLHRKGKEGLGAAYLAGFRWGLDNGYGVLVEMDADGSHRPEELPRLLTALKGADLVLGSRWVPGGRVVNWPKSREFISRGGSLYSRLALDLPQRDITGGYRAFRRETLEGLGLDEVASQGYCFQVDLARRTVKAGYHVVEVPITFVEREFGDSKMSRDILVEALWRVTTWGVGERVGRITGRGPKSSLEHHHHHH,not soluble
6,MLRNLILITLLVASGHGQTPVIGGTCKLGTADVQIGGKQTQFFLKCETTADSAEGEGVWVVKSRAAAAPSSVPSVPAENTQPQQHPKARKPASPNICEQDNGARESEVCAVSATCLQAHNDFPSSYLQCDQTTLRWVRKSCQENFLFNFEQQTCIVPKRMSSLSRQQASGLVCTFSSCSNSNPCSVGTCNNGYCCSSGSNSGSAIIVGGGSSNCVGCQNAPQIITIPQNSCPGGGYSVGGCSSGYCATGYSCIQNQCCPSYNSAPRISVYTCPSGGNAVGACMSGRCASGYTCSNNVCCPQTTTTNPFVCPDGTQAAGGCVNGQCGTGYTCSNGLCCAGTSTTVKCLDGSDAVGACIPSCTGDGCGGVQVSYYCGSGYTCTTGNICCPINSCPNGGEVLGPTINGLCPTGYTVQGNLCCSATCTDGSTGLPSVNGVCIDGYSLTNGVCCPASVTCTDEISIGPCTGTGFNGGCPAGYACDSNQVNCCPVVRYTDESCQVGPAIDGLCPPGYVVVYIPNSPLITNGVNPGTCIDLQCTTGLCLTANQIGDCDTATDAGTCPTGYTCFTNAGICCSTTTFSRLRIGNSRQMAQKPNYGRPLHSYMPPPRPIGARCQLDGECVGQAEGLSMCHAGVCQCSPIAYTQGIACVRRKSFQMNDDPVIDAANDDKSSSSVSV,not soluble
7,MNVVSNTQLLEQRIADFFTLSDEHKKARVLLDTLACSCPARIFGGMVRDLGLYGVDGFSSDLDIVIGRSREELFQTLAELPVKQLRFNKFGGIRFRYHDFEFDIWNLNETWAFQEKLIFCEDESSLLNEVA,not soluble
8,MPINGIKIKNSSGEEVYVLKEKGSVVNFGREKKVCHITFDPHAARVSRIHASIEWGDEGLFFTDKSKEGTEINGTRLKQSSQELHEGVYQLAIGGISMTLEVDGDELEETVIDSPQPDESSTVPETVYEESRYSNSSIKEMPAVEVTDDE,not soluble
9,MHAYLHCLSHSPLVGYVDPAQEVLDEVNGVIASARERIAAFSPELVVLFAPDHYNGFFYDVMPPFCLGVGATAIGDFGSAAGELPVPVELAEACAHAVMKSGIDLAVSYCMQVDHGFAQPLEFLLGGLDKVPVLPVFINGVATPLPGFQRTRMLGEAIGRFTSTLNKRVLFLGSGGLSHQPPVPELAKADAHMRDRLLGSGKDLPASERELRQQRVISAAEKFVEDQRTLHPLNPIWDNQFMTLLEQGRIQELDAVSNEELSAIAGKSTHEIKTWVAAFAAISAFGNWRSEGRYYRPIPEWIAGFGSLSARTEN,not soluble
10,SLIENSHVKKDDIWPSGGQMTVKDLTAKYTEGGNAILENISFSISPGQRVGLLGRTGSGKSTLLSAFLRLLNTEGEIQIDGVSWDSITLQQWRKAFGVIPQKVFIFSGTFRKNLDPYEQWSDQEIWKVADEVGLRSVIEQFPGKLDFVLVDGGCVLSHGHKQLMCLARSVLSKAKILLLDQPSAHLDPVTYQIIRRTLKQAFADCTVILCEHRIEAMLECQQFLVIEENKVRQYDSIQKLLNERSLFRQAISPSDRVKLFPHRNSSKCKSKPQIAALKEETEEEVQDTRLENLYFQGDKDCEMKRTTLDSPLGKLELSGCEQGLHEIKLLGKGTSAADAVEVPAPAAVLGGPEPLMQATAWLNAYFHQPEAIEEFPVPALHHPVFQQESFTRQVLWKLLKVVKFGEVISYQQLAALAGNPAATAAVKTALSGNPVPILIPCHRVVSSSGAVGGYEGGLAVKEWLLAHEGHRLGKPGLG,soluble
11,MGSDKIHHHHHHMTDITVAETSAPDTIKAFEERLMQVSDTLPKRLKQCADYVGANKDRIAVSTVAEMAEGAGVQPSAFMRFCQIFGFSGFSEMQKLFRDSLVGGWPDYSTRLHHLRETASGSPSALLAEFVEAGRVSLEGLLQTVDPQLLEQAVACLSTAGMIHIVGLRRSFPVASYIAYAFEKMAVPAMLHSGVGKLESQHAIRDGDVVLAITFAPYSTETLDLVEQVSARGISVVAITDTVVNPLRKLGTITLSVAEVDFGAFRSLSATLCLAIALSVAVGTARQQD,not soluble
12,MSGEKIDITPKKDGGVLKLIKKEGQGVVKPTTGTTVKVHYVGTLENGTKFDSSRDRGDQFSFNLGRGNVIKGWDLGVATMTKGEVAEFTIRSDYGYGDAGSPPKIPGGATLIFEVELFEWSAEDISPDRDGTILRTIIVEGSKNSFPNDTSKVLAHCVGTYQGTEFYNREVNFHIGEGSEEGLPEGVERALRRFQLGEKSKIEIRGHKYTYGNSPPAGSNIPVNATLEFTIFLKEFEKVPATWEMTAEEKLDAAKQAKDRGTMYLQKGNLKLAYNKYKRAEEVLEYEKSTDPEKMAERETILNGAYLNLSLVCSKQNEQLECIKWCDKVLETKPGNVKALYRKATALLTMNEVRDAMKLFEKIVEVEPENKAAAQQIIVCRNTIREQNERDKKRFKNLFAKISTEEDKPTNTVEDEDEIVASTSGSSTSNA,soluble
13,GPGSMLRCNISQRVPTHPVVSVKSGLVFERSLVEKYVDEHGRCPVTGDPLRKEDLITAQGAAPDASIASSGSLGAASVPTLLERLQVEWEGVALEQFSLRQQVTQLQLELAHALQQYDAACRVIARLSKELDSLRGGKAVAAEETDKGPAVVVVPAPVLRRMDAAEAAERQARKQRKAAAGSTAATPSQLTEEAQWVATPSSSASASSARSAVRVAAAADASSSGVFVSAVTGDHAIVRYSPDGFSEEARGIGHTATVHTLASQPGDILLSAAEDLTVRVWSTKGAALTVMHTLRYASGVVAMSQRTVGGAYMLCGAGDGVLTLSDLESGAHVVATAPLTLDTTSGALTCVELHPYASLAAVAFQPTELQLWDAREMRADTFISHVRGTAPRTHICSASFSADCVSLAAGLTDGSVYVWDLRQVLAPVAVLPPSADAVPATVRYAPDGRSLVVGGHGVTLYDCARLSASSTAVEAVATAGLKASAVCDVCWTTSGTDVLCGSVDGVVRLYSTAAGAT,soluble
14,MKLKYSGLTASGNTHPKFTRGDIYRDQYGGMVTIKGVAERRITYRREGYEYDCVMPVYQFRRDFTLVQAAPRSKPTSREKARANIQEIKKMLNVFRGKK,not soluble
15,MSLRIKVCGIKRVEDAVMAAYCGADAIGLVVGRKHNSDDFIDKHLAQKIVRECPPYISPVLVTELDDAEEISGLVHETGVTSVQLHSDCTVDSIISLRKTFPNIKIIKNFHVIGPGVIHAMKPFESVVDAFILDTLDLANDKVGSTGLVHDWSISRKIVKEVSRPVILAGGLTPENVGEAIRVVNPYGVDASSGLKDSNGFKDEMKVINFVHRAKNDFFKVRNLSLENEGHHHHHH,soluble
16,EIRVFETAPEGLKILKDSEVVINTTTKEVAKNNQFSVSDASGTYNMVNDVKVG,soluble
17,MAHHHHHHMASVPFTEEDLHELYTWVDEIPISRQKRNIARDFADGCSVAEILKFFFPKLVDLHNYVPAMSHAKKLDNWNTLNAKVLRKLYFEVPPEEVEDIVAAVPGAIERFLRALRVKVAQIKARRDEMLRMGEIQAHVNAHHVDPSPSQPQPREGGHVRDGGASAATAHRGSGRPSSPAAPAGPVASSRGSSSAGPQAPPRQTQPQRQPTPPLVNEAASLTQALREKDYTIQELRETVAILSEKIVKLEELVRVKDEKLNQYRQKVGRVPA,soluble
18,MAHHHHHHMNKDTICAWCFDVLKYELKNEKFDKVPPLIQSLHNDGFKIPFFVKWMKLNDVKDMGSYNYDAYELNGCIGCLGETDIMELRYYALESSLNDTRFYPITLKDFPFLIVTITYLFNFEKCAHVYDWVIGKHGIKISFVANKRRYSSTFLPEVASQHNFDHQTTVKKLIRKANYRGEINDELLENIEVERYEGVSCSLTHVDYERV,not soluble
19,MGHFSEKSGSLILRRSLFIVDAIYLKKFRKKTGLKQKEFALSSGLTLKSLRNYEQGKRKLTLEKYQEIKSHFGYLVENDSSRLQVMIDYVRITLKDVRDLEFFCRNFLHCAFKEFQPFESKLMNYNHLWKRGDIWIFDFADKHETGNFQITVQLSGRGCRQLELLMETEKFTWHDWLSYLRNSYRDDMNVTRFDIAIDELYLGKDRENEQFHLSDMISKYYRHELDFESLRTWNYIGGGSLNFSDMEEIEQNRQGISLYFGSRQSEMYFNFYEKRYEIAKQEGITVEEALEIFELWNRYEIRLSQSKANAAVDEFISGVPIGEISRGLIVSKIDVYDGKNEYGSFQADRKWQLMFGGVEPLKFVTKPEAYSIERTLRWLSDSVSPSLAMIREYDMIVDGDYLQTILNSGEVNERGEKILDSIKASLGIL,not soluble
20,YFKEKKIHPEAEMFDNRGFGVVAMMGLPLAGKDTYIKENFKNINVISLDDIREELNISSKRNSGKVAAIAISRAKQLLRRKESFIWNATNLRRENRQKLIRLCTAYGAKLKFIYLEVPYRELLSRNKMRSRYVPVEVINKMIRKMDMLEGEEIC,not soluble
21,MTERLLVGVIVGSHGVRGLVRVKSFTQDEMALCDYGPLSDETGTRRFAVEVRNQAKGVVICQIPGVSDRTAADALKGTRLFLDRAALPADALEEDEYYHADLIGLPVDLVDGGRLGVVHSVHDFGAGDMLEVTLAQGRRSVLLPFTKAVVPLVDVKAGRLVADPPLGLLDDTRPPAGVEGEVEEDPGVGIDEDGDGKGGASLEHHHHHH,soluble
22,AYMYRSAFSVGLETRVTVPNVPIRFTKIFYNQQNHYDGSTGKFYCNIPGLYYFSYHITVYMKDVKVSLFKKDKAVLFTYDQYQEKNVDQASGSVLLHLEVGDQVWLQVYGDGDHNGLYADNVNDSTFTGFLLYHDTN,soluble
